Data published in the supplement of paper PMC12042874.
± gives the uncertainty stated by the source.

Assay: amyloid nucleation score (Sup35N fusion, yeast selection) (log enrichment); library NNK2; higher = more nucleation; inactive = no reads after selection
How it was run: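 Peptides of 20 random codons fused to Sup35N were expressed in psi-negative yeast, induced 24 hours with 100 μM copper sulfate, then grown 7 days at 30°C on medium lacking adenine and uracil. Input and output plasmid inserts were Illumina-sequenced. Nucleation score is the DiMSum log enrichment of output over input reads, centred on the mode score of non-aggregating sequences, excluding sequences with under 100 input reads. Random libraries had three technical output replicates.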

Substance	amyloid nucleation score
AAACAGIKFLLTFTFGFRTW	inactive
AAAHLH	-0.75 ± 0.76
AAFLAVSGFCNLPGGSTHIL	2.38 ± 0.079
AAMPLPF	inactive
AAVNWNRFPKTVTA	-0.195 ± 0.33
AAVSSCLLFYSC	3.5 ± 0.082
AAVTFSISYFIKTLHLENSS	0.169 ± 0.28
AAWNRPHMERRFSYEGYYIV	-0.508 ± 0.63
ACKRGTFQWNACLSPGSCGR	0.902 ± 0.36
ACSRANLAKKLRGMWRYSAF	-0.199 ± 1.1
ACSYANLLVTLLNSPEMPVE	0.306 ± 0.5
ACTLCGVWSVFTIFARHKIR	3.1 ± 0.18
ACTVWIMLRDSCWKARDRSG	2.95 ± 0.082
ADCLKSCLAMSGF	-0.14 ± 0.8
ADKCYGYASACVFSGSLVC	0.028 ± 0.56
ADPSDVFMVVVLGSCRAFTV	1.63 ± 0.47
ADWQYHSVYMNTVRDKCLAQ	-0.06 ± 0.28
AEAYGTSSRRSCCRGRVV	0.476 ± 0.5
AELSA	0.606 ± 0.8
AESICSSVRSYGMSSFRDPE	-0.887 ± 0.64
AEVCEVRTFVPYSCLFYSST	5.22 ± 0.06

Substance	amyloid nucleation score
AFAVSSLESGWRRRTSLEWL	0.106 ± 0.55
AFCTKCASMRAILRGGGLVW	-0.109 ± 0.76
AFPNNFTRLYALEVLFGFRN	2.1 ± 0.21
AFQITSERLGWKKVNHAVRW	0.432 ± 0.8
AFSFDAW	2.02 ± 0.14
AFSNSM	0.988 ± 0.52
AFTSLPLCYSVYGKIKFCPC	0.433 ± 0.62
AFWKVRLYRRPG	1.76 ± 0.24
AFWVLTVPLGSWYCACYCYS	-0.662 ± 0.39
AGASSRKWGLYDVYVERSEA	inactive
AGDAAN	inactive
AGFTLYFGMTRNYQYSDCSP	4.23 ± 0.066
AHCVRVLHIKSRMVVSWESR	4.19 ± 0.099
AHHPYTNQGSTVRSRAGQWG	0.519 ± 0.54
AHHYSESRGFRCCLTSGYFC	0.818 ± 0.25
AHLVCRLYETMQLYLYLQWY	-1.01 ± 0.3
AHYRR	-0.226 ± 0.45
AIEKSQYLSNVDYRICSLMT	-0.336 ± 0.23
AINCKTGRKLNWIVFGRFTV	-0.315 ± 0.25
AIRGTECYWLAWVGLAVKRR	1.12 ± 0.23
AKFTL	-0.253 ± 0.3

Substance	amyloid nucleation score
AKLLSAVVWDCHWV	5.17 ± 0.055
AKYRLVVLSEFYSLTPRVLD	-0.107 ± 1
ALEMSMGKCFWGLVVVIMRW	-0.899 ± 0.36
ALGHIQLKLHCWDYGKRCAS	0.623 ± 0.25
ALGTEFSVPKFTDGVNMAAR	-0.451 ± 0.48
ALKSCVLNDKVRRFLAWRLG	-0.183 ± 0.54
ALLVRVIRYRGSRNESRCPA	1.42 ± 0.34
ALLYYSMCCRFMRPTSAYHV	0.246 ± 1.1
ALMSCLLCVHWRLDSATGGR	5.64 ± 0.09
ALMVEDRH	0.382 ± 0.8
ALNDAGYT	-0.656 ± 0.27
ALSDCL	-0.427 ± 0.45
ALSFYNY	-0.282 ± 0.76
ALTFTGV	0.286 ± 0.41
ALWGF	-0.235 ± 0.38
ALYMDVRL	1.53 ± 0.19
ALYRSGHLMLTVNGGCWWDF	0.45 ± 0.8
AMLDP	-0.191 ± 0.41
AMTVSWWCCLMYVDMG	10.59 ± 0.037
AMYINWSLFVKLSRRMRYQR	inactive
ANKKIDSGNGLLDFQQNSQK	-0.249 ± 1

Substance	amyloid nucleation score
ANNRGVSLDPGVHCVGVLLK	0.551 ± 0.51
ANYTCTLTSL	-0.056 ± 0.21
APLNLSFIHPTFIWLYCLLG	4.27 ± 0.05
ARIAETSRYKRSENSLSLV	-0.88 ± 0.76
ARNIGDCRDVSCDWCFSYAF	5.13 ± 0.064
ARSPCCLYQMHIYFAKAFAD	-0.599 ± 0.33
ASAGCTTGTLGGPHHRHMIV	0.523 ± 0.26
ASDVKGSANDVVGFWVLPDQ	5.907 ± 0.049
ASGDGLNFWPFRSPTDAQRA	0.775 ± 0.5
ASGVNFGT	-0.215 ± 0.45
ASSYMRWVEARTRYLACAEN	4.665 ± 0.046
ASVENGSALIIRESDMSGGN	0.556 ± 0.43
ASVIQGVRLLFFRNLARSTS	0.011 ± 0.79
ASVKSILVYGGCTKWFFPHF	4.11 ± 0.062
ASWKFMFNCSKISRRPNTIT	0.148 ± 1
ASYRKWNTCPIMYEVSCRYY	inactive
ATCSPSVSRVLGLCSWECFR	-0.382 ± 0.76
ATIWCCRVKGQVGSFNL	0.868 ± 0.14
